Results as given in patent US10583184B2, “Artificial antigen produced using partial sequence of enolase protein originated from plasmodium falciparum, and method for producing same” (priority 2014, dated 2020).
Entries after “also recorded” stand apart in the source; their conditions may differ.

B1: enolase derived from P. falciparum: P. falciparum-derived enolase, a glycolytic enzyme, used as vaccine antigen (protein, UniProt Q8IJN7 1-446, looked up)
Enolase: MAHVITRINAREILDSRGNPTVEVDLETNLGIFRAAVPSGASTGIYEALELRDNDKSRYLGKGVQKAIKNINEIIAPKLIGMNCTEQKKIDNLMVEELDGSKNEWGWSKSKLGANAILAISMAVCRAGAAANKVSLYKYLAQLAGKKSDQMVLPVPCLNVINGGSHAGNKLSFQEFMIVPVGAPSFKEALRYGAEVYHTLKSEIKKKYGIDATNVGDEGGFAPNILNANEALDLLVTAIKSAGYEGKVKIAMDVAASEFYNSENKTYDLDFKTPNNDKSLVKTGAQLVDLYIDLVKKYPIVSIEDPFDQDDWENYAKLTAAIGKDVQIVGDDLLVTNPTRITKALEKNACNALLLKVNQIGSITEAIEACLLSQKNNWGVMVSHRSGETEDVFIADLVVALRTGQIKTGAPCRSERNAKYNQLLRIEESLGNNAVFAGEKFRLQLN

Experiments:
[1] = biological target: T1, plasminogen (Homo sapiens, UniProt P00747); experiment: Reactivity of peptide library with plasminogen, Dot-Blot method; type: binding; conditions: peptide immobilized on nitrocellulose film; HRP-labeled anti-plasminogen antibody; DAB staining
Source text: FIG. 11 is a photograph after staining with DAB reagent in a Dot-Blot measurement, for detecting the binding between each of the peptide 1 to peptide 8 and plasminogen. The numbers 1 to 8 in FIG. 11 indicate the locations at which peptide solutions of the peptide 1 to peptide 8 were dropped, respectively, and P indicates the locations at which plasminogen solutions (positive control) were dropped.
(§1) A peptide library of peptides 1 to 8 (SEQ ID NOs: 10 to 17), which are divided peptides obtained from a 35-residue sequence of 254th to 288th residues (FIG. 2) of the amino acid sequence of the parasite enolase, was used. Each of the peptides of the peptide library was allowed to react with plasminogen using a Dot-Blot method and an ELISA method, thereby carrying out a search for an amino acid sequence recognized by plasminogen.
The reactivity of the peptides was measured by a Dot-Blot method, using a 10% acetonitrile solution of each of 8 types of peptides, peptide 1 to peptide 8, by the following steps in the following order; (a) immobilization of each peptide on a nitrocellulose film (pore size: 0.45 μm); (b) reaction with plasminogen in a plasminogen solution; (c) reaction with an HRP-labeled anti-plasminogen antibody; and (d) DAB staining.

[2] = biological target: T1, plasminogen; experiment: Reactivity of peptide library with plasminogen, ELISA method; type: binding; conditions: peptide immobilized in wells; plasminogen 1 μg/well; HRP modified anti-plasminogen antibody, TMB staining
Method: FIG. 12 is a photograph of a plate after staining with TMB reagent in an ELISA measurement, for detecting the binding between each of the peptide 1 to peptide 8 and plasminogen. Each of the peptide 1 to peptide 8 was immobilized in each of the wells of the plate, and then allowed to react with plasminogen. Detection of binding was carried out by staining with an HRP modified-anti-plasminogen antibody and TMB reagent.
FIG. 13 is a graph of absorbance data (at 450 nm) taken after staining with TMB in an ELISA measurement, for detecting the binding between each of the peptide 1 to peptide 8 and plasminogen (plasminogen concentration: 1 μg/well).
as §1
Next, in order to digitize and quantify the reaction of the peptide library with plasminogen, the detection of binding by an ELISA method was carried out.

[3] = system: P. falciparum; experiment: Vaccine trial in owl monkeys; type: in vivo; conditions: 13 owl monkeys, vaccinated
Method: Subsequently, a vaccine trial was carried out using as antigens enolase derived from P. falciparum and an AD22 partial sequence peptide, and using 13 owl monkeys. The changes in the percentage of parasitism of P. falciparum in red blood cells in the peripheral blood of the owl monkeys were plotted.
The antigen which causes owl monkeys to acquire immunity is a chemically synthesized peptide antigen having a tandem structure in which four 22-residue peptides (AD22) are tandemly arranged, and has a structure represented by the following Structural Formula (A). Although Xaa in the Structural Formula (A) of the antigen is arbitrary, a Cys(Acm) residue, which is a Cys residue whose side chain is protected by an acetamidomethyl group, is used at this time.

T1 sequence (P00747 20-810 limits assumed): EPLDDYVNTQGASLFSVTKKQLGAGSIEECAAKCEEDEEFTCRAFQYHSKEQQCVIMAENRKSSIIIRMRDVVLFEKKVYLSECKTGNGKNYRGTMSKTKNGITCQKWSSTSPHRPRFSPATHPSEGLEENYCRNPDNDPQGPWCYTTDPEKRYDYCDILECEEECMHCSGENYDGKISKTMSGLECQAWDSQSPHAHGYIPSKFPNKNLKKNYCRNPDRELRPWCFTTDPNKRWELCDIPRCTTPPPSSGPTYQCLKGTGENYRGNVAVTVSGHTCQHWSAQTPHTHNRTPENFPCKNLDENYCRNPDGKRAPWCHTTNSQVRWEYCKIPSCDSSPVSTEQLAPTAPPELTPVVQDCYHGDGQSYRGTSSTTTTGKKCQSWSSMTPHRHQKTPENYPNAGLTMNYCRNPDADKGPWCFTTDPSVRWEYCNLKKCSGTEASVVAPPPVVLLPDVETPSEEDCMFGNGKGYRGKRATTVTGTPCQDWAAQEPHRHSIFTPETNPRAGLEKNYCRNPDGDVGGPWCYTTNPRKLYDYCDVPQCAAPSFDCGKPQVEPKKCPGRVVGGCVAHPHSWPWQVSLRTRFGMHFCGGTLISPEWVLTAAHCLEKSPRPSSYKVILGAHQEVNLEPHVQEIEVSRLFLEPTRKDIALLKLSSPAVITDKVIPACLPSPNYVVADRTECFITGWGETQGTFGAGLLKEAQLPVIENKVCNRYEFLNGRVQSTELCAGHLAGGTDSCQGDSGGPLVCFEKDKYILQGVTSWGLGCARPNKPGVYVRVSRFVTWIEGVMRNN

Molecule | binding of peptide chains with plasminogen [1] | reactivity with plasminogen (absorbance at 450 nm) [2] | percentage of parasitism of P. falciparum in red blood cells in the peripheral blood [3]
2: divided peptide from the 254th to 288th residue sequence of parasite enolase; SEQ ID NO: 11 (FYNSENKTYDK; listed as Plasmodium falciparum) [compound 2] | binding of peptide chains with plasminogen was observed |  | 
5: 10-residue divided peptide from the 254th to 288th residue sequence of parasite enolase; SEQ ID NO: 14 (PNNDKSLVKTK; listed as Plasmodium falciparum) [compound 5] |  | relatively high reactivity with plasminogen | 
peptide 3: 10-residue divided peptide of parasite enolase, NKT sequence then YDLDFKT sequence; SEQ ID NO: 12 (NKTYDLDFKTK; listed as Plasmodium falciparum) | binding of peptide chains with plasminogen was observed | relatively high reactivity with plasminogen; also recorded: highest reactivity with plasminogen, among the 10-residue peptides | 
peptide 7: 25-residue peptide sequence from the 254th to 288th residues of parasite enolase; SEQ ID NO: 16 (VAASEFYNSENKTYDLDFKTPNNDK; listed as Plasmodium falciparum) | binding of peptide chains with plasminogen was observed | high reactivity with plasminogen | 
peptide 8: 35-residue peptide sequence, 254th to 288th residues of parasite enolase; SEQ ID NO: 17 (VAASEFYNSENKTYDLDFKTPNNDKSLVKTGAQLVK; listed as Plasmodium falciparum) | binding of peptide chains with plasminogen was observed | high reactivity with plasminogen | 
B1 |  |  | a rapid increase in the percentage of parasitism was in inhibited
